In patent US20170204184A1 (CB THERAPEUTICS, published 2017) one finds Kd, IC50 and EC50 data, which are given here for nine molecules.

One assay has as its target T1, Human PD-L1 (human, UniProt Q9NZQ7 19-238, limits assumed).
T1 construct: also called PD-L1 analyte (Biacore); hPD-L1
Kind of assay: SPR (Biacore 3000), antibody captured, PD-L1 as analyte, 1:1 fit. On the procedure: The binding kinetics between PD-L1 and PD-L1 antibodies were measured by Biacore analysis, which was performed at 25° C. on a Biacore3000 instrument and recorded with a data collection rate of 1 Hz. Polyclonal rabbit anti-mouse IgG (GE, BR-1008-38) was diluted with 10 mM pH 5.0 sodium acetate and immobilized onto reference and experiment flow cells of a CM5 biosensor chip to around 15000 RU using an amine coupling kit (GE, BR10050). […] PD-L1 analyte series were prepared by diluting the stocks with running buffer to 100 nM followed by 2× serial dilution in the same buffer down to 0.78 nM. Analytes were injected in series over the reference and experiment flow cells for 3 minutes at a flow rate of 30 μL/minute. Running buffer (PBS with 0.05% P20) was allowed to flow over for 10 minutes at a flow rate of 30 μL/minute. At the end of each cycle, the biosensor surface was regenerated with 3 minutes injection of 10 mM pH1.7 Glycine-HCl buffer at a flow rate of 10 μL/minute. For each analyte sample injection (i.e. each cycle), binding responses obtained from the experimental biosensor surface were double referenced by subtracting simultaneously recorded responses from the reference surface followed by additional subtraction of responses from a single referenced running buffer sample. The association and dissociation rate constants (ka and kd) were determined simultaneously by fitting double-referenced sensorgrams of the entire titration series to Langmuir model (1:1) using Biaevaluation 4.0 software. The dissociation constant, KD, was calculated from the determined rate constants by the relation KD=kd/ka.

For assay [1], the target named is T2, PD-L1 on 293T cells (UniProt Q9NZQ7 19-290).
T2 construct: whole, on cells; also called PD-L1-293T; 293T-PD-L1 cells
T2 sequence (Q9NZQ7 19-290 limits assumed): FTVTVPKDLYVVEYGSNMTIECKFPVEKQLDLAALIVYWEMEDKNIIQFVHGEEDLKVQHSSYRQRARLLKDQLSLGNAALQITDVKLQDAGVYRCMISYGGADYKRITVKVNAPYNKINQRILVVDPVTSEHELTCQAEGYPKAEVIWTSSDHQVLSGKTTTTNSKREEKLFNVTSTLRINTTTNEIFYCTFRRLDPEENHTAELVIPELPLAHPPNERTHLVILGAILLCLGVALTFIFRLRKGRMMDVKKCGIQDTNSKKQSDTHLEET
Kind of assay: flow cytometry competition: blocks biotin-labeled PD-1 binding to PD-L1-293T cells. As for the experimental part:
Briefly, PD-L1-293T cells were suspended in FACS buffer (PBS with 3% fetal calf serum). Various concentrations of the hybridoma (FIG. 10), chimeric (FIG. 11), or humanized (FIG. 12) anti-PD-L1 antibodies were added to the cell suspension and incubated at 4° C. for 60 minutes in 96 well plates. […] The cells were washed 3 times with PBS and incubated with mouse anti-biotin PE (Biolegend, cat# 409004). The cell-associated fluorescence was then detected by flow cytometry analysis using FACS array.

The next assay concerns the target T3, hPD-L1-hFc (human).
T3 construct: it may hold a signal peptide ('open reading frame of the extracellular domain'); also called PD-L1-hFc protein; human PD-L1 extracellular domain fused with human Fc tag
Kind of assay: ELISA, coated PD-L1-hFc. On the procedure: ELISA binding analyses were conducted based on human PD-L1-mFc (for chimeric and humanized antibody detection) and PD-L1-hFc protein (for hybridoma antibody detection). 96-well plates (Costar, Cat No: 9018) were coated with 100 μL of 2 μg/ml PD-L1-mFc (Crownbio) in coating buffer PBS (Hyclone, Cat No: SH30256.01B) overnight at 4° C. The wells were aspirated and non-specific binding sites were blocked by adding 200 μL of blocking buffer (PBS with 1% (w/v) of bovine serum albumin (BSA, Roche, Cat No:738328)) and incubating for 1 hour at 37° C. After the plates were washed three times with wash buffer (PBS with 0.05% (v/v) Tween20 (Sigma, Cat No:P1379)), 100 μL/well of 1:10 serial dilutions of hybridoma (FIG. 1), chimeric (FIG. 2), or humanized (FIG. 3) anti-PD-L1 antibodies in blocking buffer (starting from 20 μg/mL) were added and incubated at room temperature for 1 hour. The plates were washed and incubated with 100 μL/well of Goat anti-Mouse IgG (H+L) (Thermo, Cat No: 31432) in blocking buffer for 60 min. After the plates were washed, 100 μL/well of substrate solution TMB (eBioscience, Cat No: 00-4201-56) were added and the plates were incubated for 2 min at room temperature. 100 μL/well of stop solution (2N H₂SO₄) was added to stop the reaction. The colorimetric signals were developed and read at 450 nm using an Auto Plate SpectraMax Plus (Supplier: Moleculer Devices; Model: MNR0643; Software: SoftMax Pro v5.4). Data were analyzed using GraphPad Prism 5 and EC50 was calculated (FIGS. 1-3; Tables 5-7).

The target in assay [2] is T4, biotinylated human PD-L1-mFc (human, biotinylated (sites not given)).
T4 construct: also called PDL-1-mFc-biotin
T4 sequence (chain, as listed by the source limits assumed): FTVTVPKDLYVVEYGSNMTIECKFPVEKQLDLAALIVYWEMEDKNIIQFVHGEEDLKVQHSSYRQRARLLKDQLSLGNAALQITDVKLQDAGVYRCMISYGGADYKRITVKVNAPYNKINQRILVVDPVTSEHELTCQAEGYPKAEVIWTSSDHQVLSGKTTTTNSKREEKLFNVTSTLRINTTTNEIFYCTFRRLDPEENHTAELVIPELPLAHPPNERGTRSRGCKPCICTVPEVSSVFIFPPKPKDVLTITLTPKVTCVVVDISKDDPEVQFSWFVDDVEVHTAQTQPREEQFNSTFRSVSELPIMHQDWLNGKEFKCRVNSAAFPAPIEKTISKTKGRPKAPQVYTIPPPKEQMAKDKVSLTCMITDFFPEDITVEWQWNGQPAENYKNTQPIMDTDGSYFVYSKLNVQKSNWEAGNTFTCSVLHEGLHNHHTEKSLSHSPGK
Kind of assay: competition ELISA: blocks PD-L1-mFc-biotin binding to coated PD-1-hFc. As for the experimental part:
The wells were aspirated and non-specific binding sites were blocked by adding 200 μL of blocking buffer (PBS with 1% (w/v) of bovine serum albumin (BSA, Roche, Cat No:738328)) and incubating for 1 hour at 37° C. After the plate was washed three times with wash buffer (PBS with 0.05% (v/v) Tween20 (Sigma, Cat No:P1379)), 100 μL/well of 1:3 serial dilutions of hybridoma (FIG. 4), chimeric (FIG. 5), or humanized (FIG. 6) anti-PD-L1 antibodies in blocking buffer (starting from 20 μg/mL) were added and incubated at 37° C. for 1 hour. […] After the plate was washed 3 times, secondary antibody (Avidin HRP eBioscience cat No.: E07418-1632, 1:500, 100 μl/well) was added and incubated at 37° C. for 0.5 hour. After the plate was washed, 100 μL/well of substrate solution TMB (eBioscience, Cat No: 00-4201-56) was added and the plate was incubated for 3min at room temperature. 100 μL/well of stop solution (2N H₂SO₄) was added to stop the reaction. The colorimetric signals were developed and read at 450 nm using an Auto Plate SpectraMax Plus (Supplier: Moleculer Devices; Model: MNR0643; Software: SoftMax Pro v5.4). Data were analyzed using GraphPad Prism 5 and IC50 was calculated (FIGS. 4-6; Tables 8-10).

The target in assay [3] is T2, PD-L1 on 293T cells. Kind of assay: flow cytometry on PD-L1-293T cells. As for the experimental part: Cell binding analyses of anti-PD-L1 antibodies were performed based on binding to a 293T cell line stably expressing PD-L1 (PD-L1-293T). 2×10⁵ 293T-PD-L1 cells were added into each well of 96-well culture plates and incubated with the indicated antibody (20 μg/ml with the dilution of 1:5) at 4° C. for 1 h. After the cells were washed three times with FACS buffer, the secondary antibody (PE Goat anti-mouse: 1:200; PE mouse anti-human: 1:10) was added to the cells at 100 μl/well, and incubated at 4° C. for 40 min. Cells were washed three times with FACS buffer and analyzed by FACS Array.

T1 sequence (Q9NZQ7 19-238 limits assumed): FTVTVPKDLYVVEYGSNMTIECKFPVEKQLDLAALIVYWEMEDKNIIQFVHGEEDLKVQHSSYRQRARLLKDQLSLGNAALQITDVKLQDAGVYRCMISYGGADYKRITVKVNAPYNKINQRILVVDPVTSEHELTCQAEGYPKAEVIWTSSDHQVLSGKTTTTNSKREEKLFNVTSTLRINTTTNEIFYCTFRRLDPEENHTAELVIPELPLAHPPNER
T3 sequence (chain, as listed by the source limits assumed): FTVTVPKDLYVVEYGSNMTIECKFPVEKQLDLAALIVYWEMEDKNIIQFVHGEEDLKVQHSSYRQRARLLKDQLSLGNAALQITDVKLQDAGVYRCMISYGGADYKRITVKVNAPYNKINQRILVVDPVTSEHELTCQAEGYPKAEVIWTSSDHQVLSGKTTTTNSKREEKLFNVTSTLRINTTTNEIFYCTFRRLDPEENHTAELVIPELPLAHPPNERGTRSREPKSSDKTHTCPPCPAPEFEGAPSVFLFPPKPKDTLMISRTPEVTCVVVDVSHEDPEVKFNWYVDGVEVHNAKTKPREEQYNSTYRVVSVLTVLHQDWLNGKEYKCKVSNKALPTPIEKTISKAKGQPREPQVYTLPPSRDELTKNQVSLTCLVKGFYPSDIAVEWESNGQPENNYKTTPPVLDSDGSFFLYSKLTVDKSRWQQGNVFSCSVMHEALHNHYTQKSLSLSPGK

B1: m7B4 (antibody, V domains shown)
VH: EVKLFESGGGLVQPGGSLKLSCVASGFDFSTYWMHWVRQAPGQGLEWIGQINPDSTTINYAPSLKDRFIISRDNAKNTLFLQMSKVRSEDTALYYCAKPGDYGYDFDCWGQGTTLTVSS
VL: DVLMTQTPLYLPVSLGDQASISCRSSQIIVHSNANTYLEWFLQKPGQSPKLLIYKVSNRFSGVPDRFSGSGSGTDFTLKISRVEAEDLGVYYCFQGSHVPYTFGGGTKLEIK
notes: Murine hybridoma IgG (printed 'mIgG'); also called 7B4-mIgG; 7B4 murine
As to B1, the Kd with Human PD-L1 came out at 6.01 nM. Besides, the IC50 in the assay with PD-L1 on 293T cells [1] came to 0.0381 µg/mL; in assay [2], 0.892 µg/mL. Also, the EC50 with hPD-L1-hFc is 0.0314 µg/mL; in the assay with PD-L1 on 293T cells [3], 0.0474 µg/mL.

B2: m8H4 (antibody, V domains shown)
VH: EVKLVESGGGLVKPGGSLKLSCAASGFTFRSYGMSWARQIPEKRLEWVASISSGGTTYYLGSVQGRFTISRDNARNILYLQMSSLRSEDTAMYYCARGYDAGFAYWGQGTLVSVSE
VL: DIVLTQSPASLAVSLGQRATISCRASQSVSTSSYSYMHWYQQKPGQPPKLLIKYASNLESGVPARFSGSGSGTDFTLNIHPVEEEDTATYYCQNSWEIPYTFGGGTKLEIK
notes: Murine hybridoma IgG (printed 'mIgG'); also called 8H4-mIgG; 8H4 murine
On to B2, for which, in the assay with Human PD-L1, binding was characterised by a dissociation constant (Kd) of 4.56 nM. Moreover, the IC50 with PD-L1 on 293T cells [1] turned out to be 0.0306 µg/mL; in assay [2] it was 0.788 µg/mL. Further, the concentration for a half-maximal effect (EC50) in the assay with hPD-L1-hFc is 0.029 µg/mL; with PD-L1 on 293T cells [3], 0.0435 µg/mL.

B3: m13C5 (antibody, V domains shown)
VH: EVKLVESGGGLVKPGGSLKLSCAASGFIFRSYGMSWVRQTPEKRLEWVASISSGGSTYYPDSVKGRFTISRDNARNILYLQMSSLRSEDTAMYDCARGYDSGFAYWGQGTLVTVSE
VL: DIVLTQSPASLAVSLGQRATISCRASQSVSTSSSSFMHWYQQKPGQPPKLLIKYASNLESGVPARFSGSGSGTDFTLNIHPVEEEDTATYYCQHSWEIPYTFGGGTKLEIKR
notes: Murine hybridoma IgG (printed 'mIgG'); also called 13C5-mIgG; 13C5 murine
For B3, binding with Human PD-L1 was put at a Kd of 1.35 nM. The IC50 with PD-L1 on 293T cells [1] is 0.0289 µg/mL; in assay [2] it was 0.872 µg/mL. Also, the concentration for a half-maximal effect (EC50) in the assay with hPD-L1-hFc came to 0.0651 µg/mL; in the assay with PD-L1 on 293T cells [3], 0.0453 µg/mL.

B4: ch13C5 (antibody)
VH: EVKLVESGGGLVKPGGSLKLSCAASGFIFRSYGMSWVRQTPEKRLEWVASISSGGSTYYPDSVKGRFTISRDNARNILYLQMSSLRSEDTAMYDCARGYDSGFAYWGQGTLVTVSE
light: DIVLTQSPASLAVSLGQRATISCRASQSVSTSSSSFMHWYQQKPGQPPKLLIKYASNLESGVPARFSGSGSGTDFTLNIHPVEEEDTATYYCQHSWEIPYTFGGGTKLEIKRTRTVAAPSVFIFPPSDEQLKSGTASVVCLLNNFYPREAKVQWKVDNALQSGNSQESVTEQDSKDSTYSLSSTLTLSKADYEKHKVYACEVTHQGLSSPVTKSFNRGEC
For the molecule B4, the Kd with Human PD-L1 was determined as 2.28 nM.

B5: m5G9 (antibody, V domains shown)
VH: EVKLVESGGGLVKPGGSLKLSCAASGFTFRSYGMSWVRQTPEKRLEWVASISSGGTTYYPDSVKGRFIISRDNARNILYLQMSSLRSEDTAMYYCAKGYDSGFAYWGQGTLVIVSA
VL: DIVLTQSPPSLAVSLGQRATISCRASQSVSTSSSSYMHWYQQKPGQPPKLLIKYASNLESGVPARFSGSGSGTDFTLNIHPVEEEDTATYYCQHSWEIPYTFGGGTKLEIK
notes: Murine hybridoma IgG (printed 'mIgG'); also called 5G9-mIgG; 5G9 murine
In the assay with Human PD-L1, B5 displayed a Kd of 4.78 nM. For the same molecule, the IC50 came out at 0.0491 µg/mL with PD-L1 on 293T cells [1] and 0.613 µg/mL in assay [2]. The values for the EC50 with hPD-L1-hFc and with PD-L1 on 293T cells [3] were 0.0312 µg/mL and 0.0337 µg/mL, respectively.

B6: m5G11 (antibody, V domains shown)
VH: QVQLKQSGPGLVQPSQSLSITCTVSGFSLTTYGVHWVRQSPGKGLEWLGVIWRGVTTDYNAAFMSRLTITKDNSKSQVFFKMNSLQANDTAIYYCARLGFYAMDYWGQGTSVTVSS
VL: SIVMTQTPKFLLVSAGDRVTITCKASQSVSNDVAWYQQKPGQSPKLLIYYAANRYTGVPDRFTGSGYGTDFTFTISIVQAEDLAVYFCQQDYTSPYTFGGGTKLEIK
notes: Murine hybridoma IgG (printed 'mIgG'); also called 5G11-mIgG; 5G11 murine
In the assay with Human PD-L1, B6 gave a Kd of 0.19 nM. In addition, the IC50 with PD-L1 on 293T cells [1] is 0.0163 µg/mL; in assay [2], 0.71 µg/mL. For the same molecule, the EC50 with hPD-L1-hFc worked out at 0.0459 µg/mL; with PD-L1 on 293T cells [3], 0.0359 µg/mL.

B7: m4A8 (antibody, V domains shown)
VH: QVQLKQSGPGLVQPSQSLSITCTVSGFSLTSYGVHWVRQSPGKGLEWLGVIWSGGITDYNAAFKSRLSISKDNSKSQVFFKMNSLQANDTAIYFCARLGFYAMDYWGQGTSVTVSS
VL: QIVLTQSPAIMSASPGEKVTMTCSANSSVSYMHWYQQKSGTSPKRWIYDTSKLASGVPARFSGSGSGTSYSLTISSMGAEDAATYYCQQWSSNPWTFGGGTKLEIK
notes: Murine hybridoma IgG (printed 'mIgG'); also called 4A8-mIgG; 4A8 murine
For the molecule B7, the Kd with Human PD-L1 worked out at 2.33 nM. Moreover, the IC50 with PD-L1 on 293T cells [1] is 0.0291 µg/mL; in assay [2], 0.868 µg/mL. The results for the EC50 in the assay with hPD-L1-hFc and in the assay with PD-L1 on 293T cells [3] were 0.0576 µg/mL and 0.0678 µg/mL, respectively.

B8: ch5G11 (antibody)
VH: QVQLKQSGPGLVQPSQSLSITCTVSGFSLTTYGVHWVRQSPGKGLEWLGVIWRGVTTDYNAAFMSRLTITKDNSKSQVFFKMNSLQANDTAIYYCARLGFYAMDYWGQGTSVTVSS
light: SIVMTQTPKFLLVSAGDRVTITCKASQSVSNDVAWYQQKPGQSPKLLIYYAANRYTGVPDRFTGSGYGTDFTFTISIVQAEDLAVYFCQQDYTSPYTFGGGTKLEIKRTVAAPSVFIFPPSDEQLKSGTASVVCLLNNFYPREAKVQWKVDNALQSGNSQESVTEQDSKDSTYSLSSTLTLSKADYEKHKVYACEVTHQGLSSPVTKSFNRGEC
notes: Mouse VH linked to a human constant region
For the molecule B8, in the assay with Human PD-L1, the equilibrium dissociation constant (Kd) was 0.286 nM.

B9: m8C6 (antibody, V domains shown)
VH: QVQLKQSGPGLVQPSQSLSITCTVSGFSLTSYGVHWVRQSPGKGLEWLGVIWSGGVTDYNAAFISRLSISKDNSKSQVFFKMNSLQANDTAIYYCARLGFYAMDYWGQGTSVTVSS
VL: SIVMTQTPKFLLVSAGDRVTITCKASQSVSNDVGWYQQKPGQSPKLLIYYASNRYSGVPDRFTGSGYGTDFTFTISTVQAEDLAVYFCQQDYTSPYTFGGGTKLEIK
notes: Murine hybridoma IgG (printed 'mIgG'); also called 8C6-mIgG; 8C6 murine
B9 returned a Kd with Human PD-L1 of 1.53 nM. Also, the 50% inhibitory concentration (IC50) with PD-L1 on 293T cells [1] stood at 0.0082 µg/mL; in assay [2] it was 0.344 µg/mL. Further, the EC50 with hPD-L1-hFc was determined as 0.0182 µg/mL; with PD-L1 on 293T cells [3], 0.041 µg/mL.
